Biological target: human CD105 (human) (UniProt P17813)
Assay: FACS titration of FITC-labeled SN6 on HUVEC cells

Sequence of human CD105 (human) (P17813 26-658): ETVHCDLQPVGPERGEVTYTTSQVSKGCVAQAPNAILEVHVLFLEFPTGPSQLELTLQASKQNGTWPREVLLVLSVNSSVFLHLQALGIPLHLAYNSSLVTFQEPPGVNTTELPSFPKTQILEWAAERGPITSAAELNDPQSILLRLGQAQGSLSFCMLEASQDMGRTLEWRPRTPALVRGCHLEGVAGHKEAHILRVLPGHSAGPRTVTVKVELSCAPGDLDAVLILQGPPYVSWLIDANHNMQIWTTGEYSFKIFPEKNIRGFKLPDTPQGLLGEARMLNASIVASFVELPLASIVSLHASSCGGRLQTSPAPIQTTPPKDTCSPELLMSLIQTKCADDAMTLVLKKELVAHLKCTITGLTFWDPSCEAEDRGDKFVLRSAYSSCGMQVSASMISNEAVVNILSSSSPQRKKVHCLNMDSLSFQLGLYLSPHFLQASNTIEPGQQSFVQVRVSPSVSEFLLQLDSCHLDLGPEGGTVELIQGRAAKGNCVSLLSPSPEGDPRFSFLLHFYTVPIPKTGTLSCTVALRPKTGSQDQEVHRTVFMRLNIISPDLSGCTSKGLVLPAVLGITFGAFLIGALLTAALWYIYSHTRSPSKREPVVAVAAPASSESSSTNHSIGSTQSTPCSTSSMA

SN6 antibody (Abcam)
EC50: 2 µg/mL

— US20100196398A1
